We go through one protein from patent publication US20040038340.

Data set [1] has as its target T1, HPr(His)6 from B. subtilis, P08877.
T1 chain: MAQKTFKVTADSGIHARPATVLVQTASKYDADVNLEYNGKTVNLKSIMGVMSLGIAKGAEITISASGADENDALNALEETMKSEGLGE

Data set [2] has as its target T2, P-Ser-HPr(His)6 from B. subtilis, P08877.
T2 chain: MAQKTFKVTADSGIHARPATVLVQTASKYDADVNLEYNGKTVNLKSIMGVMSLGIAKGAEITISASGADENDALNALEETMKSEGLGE

B1: His-tagged L. casei HprK (protein)
chain: MADSVTVRQLVKATKLEVYSGEEYLDQRQVVLSDISRPGLELTGYFNYYPHERIQLFGRTEISFARNMSSEERLLILKRMATEDTPAFLVSRGLEAPAEMITAATAAHIPVLGSRLPTTRLSSLITEYLDSQLAERRSMHGVLVDIYGLGVLITGDSGVGKSETALELVQRGHRLIADDRVDVYQQDEQTIVGAAPPILSHLLEIRGLGIIDVMNLFGAGAVREDTTISLIVHLENWTPDKTFDRLGSGEQTQLIFDVPVPKITVPVKVGRNLAIIIEVAAMNFRAKSMGYDATKTFEKNLNHLIEHNEETDQNSSGDK
B1: in data set [1], the “HPr kinase activity (ATP-dependent HPr phosphorylation, non-denaturing gel)” value is given as “HprK of L. casei was indeed found to be bifunctional”. The “P-Ser-HPr phosphatase activity (non-denaturing gel)” value in data set [2] is listed as “HprK of L. casei was indeed found to be bifunctional”.
